Laboratory results as given in paper PMC1904107.

Molecular target: caldesmon(302–564) (UniProt Q05682)
Assay: fluorescence cross-correlation spectroscopy

**Q.** “CaM(1–149) (from UniProt P0DP23 1-149) (natural protein)” was tested. Which Kd did it give?
**A.** 500 nM
